Source: patent US20220273573A1, “SOLID DISPERSION GENISTEIN COMPOSITIONS AND METHODS OF MAKING AND USING THE SAME” (priority 2020, published 2022)

System: mice exposed to bilateral whole-body irradiation
Test: Prophylactic efficacy, 180-day survival after whole-body irradiation
Assay type: in vivo
Details: single subcutaneous injection 0.3 mg/kg 24 hours after 9.2 Gy whole-body irradiation
Description: In another study, selected samples of Example 3 were each orally administered at 200 mg Genistein/kg twice per day to groups of mice for 6 consecutive days. A separate vehicle control and genistein group was included for each sample formulation. The mice were then exposed to bilateral whole-body irradiation at a dose of 9.2 Gy at 0.6 Gy/min and the 180-day survival rate was observed. As additional controls, an injectable suspension (200 mg Genistein/kg) and corresponding vehicle were also administered to groups of mice via intramuscular injection 24 hours prior to exposure to bilateral whole-body irradiation at a dose of 9.2 Gy at 0.6 Gy/min. A separate group of mice was also administered a single subcutaneous injection of Neulasta® (0.3 mg/kg), an FDA-approved radiation treatment drug, 24 hours after exposure to bilateral whole-body irradiation at a dose of 9.2 Gy at 0.6 Gy/min. The results of this study are shown in Table 5 as percentage of surviving animals, and the number of surviving animals compared to the total number of animals in the study and depicted in FIG. 3.

B1: Neulasta ®: an FDA-approved radiation treatment drug, single subcutaneous injection (protein, UniProt P09919 31-207, looked up)
Granulocyte …: TPLGPASSLPQSFLLKCLEQVRKIQGDGAALQEKLVSECATYKLCHPEELVLLGHSLGIPWAPLSSCPSQALQLAGCLSQLHSGLFLYQGLLQALEGISPELGPTLDTLQLDVADFATTIWQQMEELGMAPALQPTQGAMPAFASAFQRRAGGVLVASHLQSFLEVSYRVLRHLAQP
modifications: pegfilgrastim; PEG, N-terminal Met
notes: an FDA-approved radiation treatment drug, single subcutaneous injection
  180-Day Survival: 56% (9/16)
